T1: hAng1 (human, UniProt Q15389 20-498, limits assumed)
T1 construct: Tested by the same SPR set-up as hAng2; the construct is not described; also called human Ang1
T1 sequence (looked up): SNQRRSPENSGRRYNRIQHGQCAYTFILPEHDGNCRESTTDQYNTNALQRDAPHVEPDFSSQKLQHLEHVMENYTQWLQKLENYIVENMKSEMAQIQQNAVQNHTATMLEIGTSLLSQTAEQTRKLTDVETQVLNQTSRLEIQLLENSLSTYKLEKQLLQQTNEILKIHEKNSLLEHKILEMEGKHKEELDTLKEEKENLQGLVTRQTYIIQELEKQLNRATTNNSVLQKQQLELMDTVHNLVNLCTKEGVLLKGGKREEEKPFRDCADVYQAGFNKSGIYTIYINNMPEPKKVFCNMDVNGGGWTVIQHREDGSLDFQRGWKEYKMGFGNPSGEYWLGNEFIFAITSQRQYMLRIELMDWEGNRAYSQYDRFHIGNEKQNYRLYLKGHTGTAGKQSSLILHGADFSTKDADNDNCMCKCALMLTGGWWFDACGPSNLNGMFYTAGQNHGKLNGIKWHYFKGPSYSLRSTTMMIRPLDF

T2: recombinant hAng-2 (C-His, R&D Systems) (human, UniProt O15123 19-496)
T2 construct: Bought protein; Captured on an anti-His antibody chip for SPR; also called human Ang2; not shown: C-terminal His tag
T2 sequence: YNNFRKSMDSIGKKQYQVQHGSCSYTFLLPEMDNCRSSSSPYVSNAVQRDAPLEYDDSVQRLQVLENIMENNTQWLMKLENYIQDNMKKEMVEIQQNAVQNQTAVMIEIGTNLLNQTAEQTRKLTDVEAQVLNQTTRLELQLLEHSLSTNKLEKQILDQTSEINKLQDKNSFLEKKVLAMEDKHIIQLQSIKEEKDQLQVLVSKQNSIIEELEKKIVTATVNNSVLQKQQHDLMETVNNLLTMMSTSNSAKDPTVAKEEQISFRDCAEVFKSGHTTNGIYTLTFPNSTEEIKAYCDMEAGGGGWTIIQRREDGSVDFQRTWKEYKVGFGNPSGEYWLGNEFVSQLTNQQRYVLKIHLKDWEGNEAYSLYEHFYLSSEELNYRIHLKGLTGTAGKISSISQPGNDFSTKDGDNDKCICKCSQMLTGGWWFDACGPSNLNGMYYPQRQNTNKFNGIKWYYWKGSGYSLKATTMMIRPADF

T3: human Ang2 protein (R&D systems) (human, UniProt O15123 19-496)
T3 sequence: T2 sequence

T4: FLAG-tagged hAng-2 (human, UniProt O15123 19-496)
T4 sequence: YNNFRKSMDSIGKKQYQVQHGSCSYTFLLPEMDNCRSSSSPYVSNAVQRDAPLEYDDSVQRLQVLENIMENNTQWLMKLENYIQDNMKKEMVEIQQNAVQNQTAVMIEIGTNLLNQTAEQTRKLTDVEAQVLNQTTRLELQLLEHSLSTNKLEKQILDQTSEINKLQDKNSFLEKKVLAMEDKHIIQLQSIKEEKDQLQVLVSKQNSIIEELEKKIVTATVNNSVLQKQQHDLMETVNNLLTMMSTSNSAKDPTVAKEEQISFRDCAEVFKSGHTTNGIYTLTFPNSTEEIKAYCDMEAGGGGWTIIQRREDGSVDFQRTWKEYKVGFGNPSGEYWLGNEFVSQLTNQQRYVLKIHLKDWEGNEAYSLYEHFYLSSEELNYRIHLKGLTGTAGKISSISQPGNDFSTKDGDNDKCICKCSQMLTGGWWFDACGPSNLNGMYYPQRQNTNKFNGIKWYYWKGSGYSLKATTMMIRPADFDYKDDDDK

B1: SAIT-ANG2-AB-m1A10 (antibody, V domains shown)
VH: QVQLQQSGAELMKPGASVKISCKATDYTFSSYWLEWLIQRPGHGLEWIGEILPGSGSTNYNEKFRGKATFTEDTSSNTAYMQLSSLTSEDSAVYYCARGNHNSYYYAMDYWGQGTSVTVSS
VL: DIVLTQSPASLAVSLGQRATISCRASESVDSYGNSFMHWYQQKPGQPPKLLIYRASNLDSGIPARFSGSGSRTDFTLTINPVEADDVATYYCQQSNEDPLTFGAGTKLELK
notes: also called hybridoma KCLRF-BP-00306
B2: SAIT-ANG2-AB-m3E2 (antibody, V domains shown)
VH: EVQLQQSGAELVKPGASVKLSCTASGFNIKDPYIHWVKQRPEQGLEWIGRIDPANGNTKYDPKFQGKATITADTSSNTAYLQLSSLTSEDTAVYYCVRRWDGGGFDYWGQGTSVTVSS
VL: DIQMTQTTSSLSASLGDRVTISCRASQDISNYLNWYQQKPDGTVKLLIYYTSRLHSGVPSRFSGSGSGTDYSLTITNLEQEDIATYFCQQGNTLPWTFGGGTKLEIK
notes: also called hybridoma KCLRF-BP-00305
B3: SAIT-ANG2-AB-m8D3 (antibody, V domains shown)
VH: EVQLQQSGPELVKPGDSVKMSCKASGYTFTDYYMKWVRQSHGKSLQWVGEINPKNGDTFYNQIFKGKATLTVDKSSSTAYMQLTSLTSEDSAVYYCTRENDYDVGFFDYWGQGTSVTVSS
VL: TIVMTQTPKFLLVSAGDRITITCKASQSVSNDVAWYQQKPGQSPKLLIYYASNRYPGVPDRFTGSGYGTDFTFTISTVQAEDLAVYFCQQDYTSPWTFGGGTELEIK
notes: also called hybridoma KCLRF-BP-00308

Molecular target: T1, hAng1
Assay: SPR, BIAcore T100

Row | Binder | binding result
1 | B1 | no binding (tested: 100 nM (highest antibody concentration))
2 | B2 | no binding (tested: 100 nM (highest antibody concentration))
3 | B3 | no binding (tested: 100 nM (highest antibody concentration))

Molecular target: T2, recombinant hAng-2 (C-His, R&D Systems)
Assay: SPR, BIAcore T100; hAng-2 C-His captured on anti-His chip, antibody flowed
Experimental: To more exactly measure the binding affinity of the anti-Ang2 antibodies to antigen Ang2, the binding affinity of the above antibodies to the antigen was measured by an surface plasmon resonance (SPR) method using BIAcore T100 (GE Healthcare). The SPR method uses refractive index change of light which passes a sensor chip according to the state of materials coated onto the sensor chip, and if an antigen or an antibody is flowed onto a chip coated with the antigen or antibody, it causes changes in refractive index due to their binding and Kd values are thus calculated from the measured values.
First, anti-His antibody was immobilized on a CM5 sensor chip (GE healthcare) up to 8,000 RU levels using a pH 5.0 acetate solution and an amine coupling kit (GE Healthcare). 6 μg/ml of a recombinant hAng-2 (C-His, R&D Systems) protein was flowed onto the chip to be captured at 100 to 200 RU levels.

Row | Binder | Kd
4 | B1 | 4.2 nM
5 | B2 | 1.3 nM
6 | B3 | 4 nM

Molecular target: T3, human Ang2 protein (R&D systems)
Assay: cell-based or functional assay

Row | Binder | Tie2 phosphorylation inhibition (%), antibody at 50 nM, Tie2-overexpressing CHO cells with 20 nM human Ang2
7 | B1 | 82%
8 | B2 | 76.9%
9 | B3 | 76.7%

Molecular target: T4, FLAG-tagged hAng-2
Assay: Ang2:Tie2 competition ELISA; hTie2-Fc coated, 400 ng/ml FLAG-tagged hAng-2, anti-FLAG-HRP detection
Experimental: More specifically, MaxiSorp™ flat-bottom plate (Nunc) of 96-well was coated with hTie2-Fc (R&D Systems) which is a protein bound with 4 μg/ml of Fc of human IgG1. After coating, the plate was washed five times with 0.05% (v/v) Tween-20-containing PBS (phosphate buffer saline) and then blocked with 1% (v/v) BSA (bovine serum albumin; Sigma)-containing PBS at a room temperature for 2 hour.
For Ang2:Tie2 competition ELISA, each anti-Ang2 antibody obtained in Example 2 was placed at various concentrations of 400 nM-0.001 nM into each well coated with the hTie-2/Fc fusion protein along with 1% (v/v) BSA and 400 ng/ml of a FLAG-tagged hAng-2 and then, the plate was allowed to react at a room temperature for 2 hours and washed five times with PBST. After that, a HRP-conjugated anti-FLAG antibody (Sigma) diluted in 1% (v/v) BSA-containing PBS at a ratio of 1:5,000 (v/v) was added in an amount of […] to each well to react at a room temperature for 1 hour and then, the plate was washed five times with PBST. Lastly, 100 μl of TMB substrate (Cell Signaling) was added to each well of the plate to induce color development for 3 min. and then, the reaction was ceased by the addition of 100 μl of Stop solution (Cell Signaling) and OD450 values were measured on a plate reader (Molecular Devices).

Row | Binder | IC50
10 | B1 | 1.34 nM
11 | B2 | 0.55 nM
12 | B3 | 0.99 nM
